“And” between values parts separate entries of the source, which are not always exact repeats. Equal values may be shown once. One block for each binder: values may come before it.
Columns and labels:
[1] = molecular target: T1, human GARP-TGF-β1 complex (recombinant complex of human GARP and latent human TGF-β1) (human, UniProt Q14392 20-627; P01137 30-278; P01137 279-390); assay: SPR Biacore 3000, chip ~4000 RU hGARP-TGF-β; slope vs -20°C reference (=100%); sample stored 56 d at 37°C
T1 construct: also called huGARP-TGF-β1; hGARP-TGF-β1
T1 sequence (Q14392 20-627 limits assumed, chain 1 of 3): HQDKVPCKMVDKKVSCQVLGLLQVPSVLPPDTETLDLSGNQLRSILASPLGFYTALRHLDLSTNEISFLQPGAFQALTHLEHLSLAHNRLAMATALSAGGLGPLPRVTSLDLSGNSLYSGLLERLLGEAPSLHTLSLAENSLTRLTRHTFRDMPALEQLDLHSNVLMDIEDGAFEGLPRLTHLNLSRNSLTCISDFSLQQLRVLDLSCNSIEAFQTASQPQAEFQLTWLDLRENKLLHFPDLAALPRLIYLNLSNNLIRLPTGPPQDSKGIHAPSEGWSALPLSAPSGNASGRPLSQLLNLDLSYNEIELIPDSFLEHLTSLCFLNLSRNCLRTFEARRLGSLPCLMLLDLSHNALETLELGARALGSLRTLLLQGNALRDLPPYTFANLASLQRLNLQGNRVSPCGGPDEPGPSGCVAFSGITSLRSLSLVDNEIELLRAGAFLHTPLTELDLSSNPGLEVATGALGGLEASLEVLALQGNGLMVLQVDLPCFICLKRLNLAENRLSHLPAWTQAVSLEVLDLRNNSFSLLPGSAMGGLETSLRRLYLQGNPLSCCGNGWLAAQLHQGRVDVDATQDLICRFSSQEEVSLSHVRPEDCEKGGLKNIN
T1 sequence (P01137 30-278 limits assumed, chain 2 of 3): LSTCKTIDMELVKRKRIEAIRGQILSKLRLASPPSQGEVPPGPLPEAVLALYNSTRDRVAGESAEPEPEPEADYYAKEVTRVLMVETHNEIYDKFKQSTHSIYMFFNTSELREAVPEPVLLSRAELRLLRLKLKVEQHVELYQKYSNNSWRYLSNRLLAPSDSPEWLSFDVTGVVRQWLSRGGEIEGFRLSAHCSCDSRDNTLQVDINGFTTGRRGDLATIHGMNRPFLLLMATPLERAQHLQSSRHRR
T1 sequence (P01137 279-390 limits assumed, chain 3 of 3): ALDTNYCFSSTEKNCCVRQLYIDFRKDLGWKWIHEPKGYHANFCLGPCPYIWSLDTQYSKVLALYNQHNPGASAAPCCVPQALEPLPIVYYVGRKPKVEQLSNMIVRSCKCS
Protocol: (§1) From the intermediate concentration of all samples at 1 mg/ml described above, an extra 1/250 dilution was done for SPR analysis to yield a final concentration of 4 μg/ml. This 1/250 dilution took place for all conditions in two steps: a) 5 μl (1 mg/ml)+120 μl HBS-EP (SPR buffer) and b) an extra 10× dilution (15 μl+135 μl HBS-EP). For each antibody and each time point, a separate standard curve was prepared, starting from a −80° C. frozen sample. This was analyzed together with the stability samples to determine the slope of each curve after general fitting of the standards. These slopes were used to calculate the percent activity of the stability samples by setting the reference sample at 100%.
(§2) To determine the target binding activity in Biacore, a CM5 chip was coated with ˜4000 RU human GARP-TGF-β complex. Flow was set to 30 μl/min with a “kinject” injection mode and two regeneration injections (1 mM NaCl, 2.5 mM glycine pH 1.5) with a 5 min interval.
(§3) Open the curves in the BIAEVAL program and select value ‘2-1’ (1: blank, 2 hGARP-TGF-β1) [0263] Select one curve at the time for plot overlay [0264] Delete the regeneration part of the curve [0265] Select the baseline just before the injection and transform the Y-axis for ‘zero at median of selection’ [0266] Select ‘General Fit’, starting from 120 sec after injecting and ending at 155 sec [0267] Plot the standards in Excel and determine the slope of the curve for each antibody [0268] These values are converted to a percent activity by setting the reference (sample stored at −20° C.) at 100%

[2] = molecular target: T1, human GARP-TGF-β1 complex (recombinant …); assay: SPR Biacore 3000, chip ~4000 RU hGARP-TGF-β; slope vs -20°C reference (=100%); sample 0 d, 37°C arm
Protocol: as §1, §2, §3

[3] = molecular target: T1, human GARP-TGF-β1 complex (recombinant …); assay: SPR Biacore 3000, chip ~4000 RU hGARP-TGF-β; slope vs -20°C reference (=100%); sample 0 d, 5°C arm
Protocol: as §1, §2, §3

[4] = molecular target: T1, human GARP-TGF-β1 complex (recombinant …); assay: SPR Biacore T200, CM5 chip coated with the antibody at 200 RU, complex in solution
Protocol: (§4) The affinity of all antibodies (including 39B6-A) for GARP-TGF-β1 was tested by BiacoreT200 using a CM5 chip coated with GARP-TGF-β1 complex at 150RU (Table 17) or coated with the antibodies at 200RU (Table 17)

[5] = molecular target: T1, human GARP-TGF-β1 complex (recombinant …); assay: SPR Biacore 3000, chip ~4000 RU hGARP-TGF-β; slope vs -20°C reference (=100%); sample stored 28 d at 5°C
Protocol: as §1, §2, §3

[6] = molecular target: T1, human GARP-TGF-β1 complex (recombinant …); assay: SPR Biacore 3000, chip ~4000 RU hGARP-TGF-β; slope vs -20°C reference (=100%); sample stored 28 d at 37°C
Protocol: as §1, §2, §3

[7] = molecular target: T1, human GARP-TGF-β1 complex (recombinant …); assay: SPR Biacore 3000, chip ~4000 RU hGARP-TGF-β; slope vs -20°C reference (=100%); sample stored 56 d at 5°C
Protocol: as §1, §2, §3

[8] = molecular target: T1, human GARP-TGF-β1 complex (recombinant …); assay: SPR Biacore T200, CM5 chip coated with GARP-TGF-β1 complex at 150 RU
Protocol: as §4

[9] = molecular target: T1, human GARP-TGF-β1 complex (recombinant …); assay: SPR, mAb on human GARP-TGF-β1 complex
Source text: The five germlined clones reformatted to human IgG1 were produced by transient transfection in HEK 293E cells.

[10] = molecular target: T1, human GARP-TGF-β1 complex (recombinant …); assay: SPR Biacore T200, CM5 chip coated with the antibody at 1000 RU, complex in solution
Protocol: (§5) Clone 39B6 was selected as the lead germlined clone based on its binding characteristics. This antibody was produced in two effector function deficient formats, hlgG1^N297Q and hlgG4^S228P, and stability tests were carried out. Prior to the stability testing, the affinity of the effector deficient 39B6 antibodies for GARP-TGF-β1 was tested by BiacoreT200 using a CM5 chip coated with GARP-TGF-β1 complex at 750RU (Table 14) or coated with the antibodies at 1000RU (Table 15).

[11] = molecular target: T1, human GARP-TGF-β1 complex (recombinant …); assay: SPR Biacore T200, CM5 chip coated with GARP-TGF-β1 complex at 750 RU
Protocol: as §5

[12] = molecular target: T2, complex of recombinant GARP and recombinant LAP (human, UniProt Q14392 20-627; P01137 30-278); assay: ELISA in two orientations: GARP coated and LAP captured; or ARGX-115 coated, GARP then LAP added, detected with anti-LAP-HRP
T2 construct: Formed on the ELISA plate; It contains no mature TGF-β; also called GARP-LAP complex
T2 sequence (Q14392 20-627 limits assumed, chain 1 of 2): as the sequence (Q14392 20-627 limits assumed, chain 1 of 3) above
T2 sequence (P01137 30-278 limits assumed, chain 2 of 2): as the sequence (P01137 30-278 limits assumed, chain 2 of 3) above
Protocol: For ELISA plates coated with GARP, a complex with either full-length latent TGF-β (including both the LAP and mature TGF-β regions) or a complex with recombinant LAP was allowed to form by the addition of the relevant recombinant protein. […] In contrast, an anti-LAP antibody was able to bind to the GARP-LAP complex.
An ELISA plate was coated with recombinant GARP (1 μg/mL O/N 4° C.), blocked with blocking agent (casein-PBS), and LAP (5 μg/mL) was captured on the coated recombinant GARP. LAP binding was detected with anti-LAP-HRP.

B3: 39B6 IgG1-N297Q (antibody, V domains shown)
VH: QVQLVQPGAEVRKPGASVKVSCKASGYRFTSYYIDWVRQAPGQGLEWMGRIDPEDGGTKYAQKFQGRVTMTADTSTSTVYVELSSLRSEDTAVYYCARNEWETVVVGDLMYEYEYWGQGTLVTVSS
VL: DIQMTQSPSSLSASVGDRVTITCQASQSISSYLAWYQQKPGQAPKILIYGASRLKTGVPSRFSGSGSGTSFTLTISSLEPEDAATYYCQQYASVPVTFGQGTKVEIK
notes: Effector-deficient format hIgG1 N297Q; The second row may be the IgG4 S228P form; Both rows are written here as printed
Kd [10]: 1.23 nM and 1.02 nM

B4: LHG10.6 IgG1-N297Q (antibody, V domains shown)
VH: EVQLVQPGAELRNSGASVKVSCKASGYRFTSYYIDWVRQAPGQGLEWMGRIDPEDGGTKYAQKFQGRVTFTADTSTSTAYVELSSLRSEDTAVYYCARNEWETVVVGDLMYEYEYWGQGTQVTVSS
VL: DIQMTQSPSSLSASLGDRVTITCQASQSISSYLAWYQQKPGQAPNILIYGASRLKTGVPSRFSGSGSGTSFTLTISGLEAEDAGTYYCQQYASVPVTFGQGTKVELK
Fold-difference (KD vs LHG10.6) [11]: 1 fold | Kd [11]: 0.819 nM | Fold-difference (KD vs LHG10.6) [10]: 1 fold | Kd [10]: 0.534 nM

B7: 39B6-AVE IgG4 S228P (antibody, V domains shown)
VH: QVQLVQPGAEVRKPGASVKVSCKASGYRFTSYYIDWVRQAPGQGLEWMGRIDPEDAGTKYAQKFQGRVTMTADTSTSTVYVELSSLRSEDTAVYYCARVEWETVVVGDLMYEYEYWGQGTLVTVSS
VL: DIQMTQSPSSLSASVGDRVTITCQASQSISSYLAWYQQKPGQAPKILIYGASRLKTGVPSRFSGSGSGTSFTLTISSLEPEDAATYYCQQYASVPVTFGQGTKVEIKR
notes: Variant of 39B6-A in IgG4 S228P format; Positions are Kabat-type
Activity on Biacore (%) [1]: 31.3% | Activity on Biacore (%) [2]: 99.5% | Activity on Biacore (%) [3]: 99.5% | Fold-difference (KD vs 39B6-A) [4]: 1 fold | Kd [4]: 1.29 nM | Activity on Biacore (%) [5]: 99% | Activity on Biacore (%) [6]: 68% | Activity on Biacore (%) [7]: 96.9% | Fold-difference (KD vs 39B6-A) [8]: 0.9 fold | Kd [8]: 0.894 nM

Further binders by falling Kd [8], results first:

Activity on Biacore (%) [1]: 46.3% | Activity on Biacore (%) [2]: 101% | Activity on Biacore (%) [3]: 101% | Fold-difference (KD vs 39B6-A) [4]: 1.5 fold | Kd [4]: 1.94 nM | Activity on Biacore (%) [5]: 129% | Activity on Biacore (%) [6]: 85.4% | Activity on Biacore (%) [7]: 85.4% | Fold-difference (KD vs 39B6-A) [8]: 0.9 fold | Kd [8]: 0.884 nM
B6: 39B6-ANR IgG4 S228P (antibody, V domains shown)
VH: QVQLVQPGAEVRKPGASVKVSCKASGYRFTSYYIDWVRQAPGQGLEWMGRIDPEDAGTKYAQKFQGRVTMTADTSTSTVYVELSSLRSEDTAVYYCARNRWETVVVGDLMYEYEYWGQGTLVTVSS
VL: DIQMTQSPSSLSASVGDRVTITCQASQSISSYLAWYQQKPGQAPKILIYGASRLKTGVPSRFSGSGSGTSFTLTISSLEPEDAATYYCQQYASVPVTFGQGTKVEIKR
notes: as for B7

Activity on Biacore (%) [1]: 62.4% | Activity on Biacore (%) [2]: 130% | Activity on Biacore (%) [3]: 130% | Fold-difference (KD vs 39B6-A) [4]: 1.5 fold | Kd [4]: 2.02 nM | Activity on Biacore (%) [5]: 101% | Activity on Biacore (%) [6]: 77.8% | Activity on Biacore (%) [7]: 101% | Fold-difference (KD vs 39B6-A) [8]: 0.9 fold | Kd [8]: 0.88 nM
B1: 39B6-ANK IgG4 S228P (antibody, V domains shown)
VH: QVQLVQPGAEVRKPGASVKVSCKASGYRFTSYYIDWVRQAPGQGLEWMGRIDPEDAGTKYAQKFQGRVTMTADTSTSTVYVELSSLRSEDTAVYYCARNKWETVVVGDLMYEYEYWGQGTLVTVSS
VL: DIQMTQSPSSLSASVGDRVTITCQASQSISSYLAWYQQKPGQAPKILIYGASRLKTGVPSRFSGSGSGTSFTLTISSLEPEDAATYYCQQYASVPVTFGQGTKVEIKR
notes: as for B7

Activity on Biacore (%) [1]: 104% | Activity on Biacore (%) [2]: 93.5% | binding result [12]: no binding | Activity on Biacore (%) [3]: 93.5% | Fold-difference (KD vs 39B6-A) [4]: 1.2 fold | Kd [4]: 1.62 nM | Activity on Biacore (%) [5]: 96.7% | Activity on Biacore (%) [6]: 96.1% | Activity on Biacore (%) [7]: 104% | Fold-difference (KD vs 39B6-A) [8]: 0.8 fold | Kd [8]: 0.763 nM
B5: 39B6-AYE (ARGX-115), IgG4 S228P (antibody, V domains shown)
VH: QVQLVQPGAEVRKPGASVKVSCKASGYRFTSYYIDWVRQAPGQGLEWMGRIDPEDAGTKYAQKFQGRVTMTADTSTSTVYVELSSLRSEDTAVYYCARYEWETVVVGDLMYEYEYWGQGTLVTVSS
VL: DIQMTQSPSSLSASVGDRVTITCQASQSISSYLAWYQQKPGQAPKILIYGASRLKTGVPSRFSGSGSGTSFTLTISSLEPEDAATYYCQQYASVPVTFGQGTKVEIKR

Kd [9]: 0.1 nM | fold difference (KD vs 17H5) [9]: 1 fold | Fold-difference (KD vs 39B6-A) [8]: 0.5 fold | Kd [8]: 0.517 nM
B2: LHG-10.6 monoclonal antibody (17H5 mAb), isotype not stated (antibody, V domains shown)
VH: EVQLVQPGAELRNSGASVKVSCKASGYRFTSYYIDWVRQAPGQGLEWMGRIDPEDGGTKYAQKFQGRVTFTADTSTSTAYVELSSLRSEDTAVYYCARNEWETVVVGDLMYEYEYWGQGTQVTVSS
VL: DIQMTQSPSSLSASLGDRVTITCQASQSISSYLAWYQQKPGQAPNILIYGASRLKTGVPSRFSGSGSGTSFTLTISGLEAEDAGTYYCQQYASVPVTFGQGTKVELK

From patent US20210324061A1 (ARGENX BVBA, published 2021)
